Patent US20260015399A1 (Boehringer Ingelheim, published 2026)
*1 amine or outer side, *2 acyl side, *3 side chain or, on linkers, in order; H or OH if unused. Side-chain parts run from the residue outwards. The star is where a group is joined. C18 diacid = O=C(O)CCCCCCCCCCCCCCCCC(=O)*; γGlu = O=C(O)[C@H](CCC(=O)[*:2])N[*:1]; Isovaleryl = CC(C)CC(=O)*; Ahx = NCCCCCC(=O)O

T1: human NPY2 receptor (human, UniProt P49146 1-381)
T1 construct: whole, on cells; also called hNPY2-R; hNPY2R
T1 sequence (looked up): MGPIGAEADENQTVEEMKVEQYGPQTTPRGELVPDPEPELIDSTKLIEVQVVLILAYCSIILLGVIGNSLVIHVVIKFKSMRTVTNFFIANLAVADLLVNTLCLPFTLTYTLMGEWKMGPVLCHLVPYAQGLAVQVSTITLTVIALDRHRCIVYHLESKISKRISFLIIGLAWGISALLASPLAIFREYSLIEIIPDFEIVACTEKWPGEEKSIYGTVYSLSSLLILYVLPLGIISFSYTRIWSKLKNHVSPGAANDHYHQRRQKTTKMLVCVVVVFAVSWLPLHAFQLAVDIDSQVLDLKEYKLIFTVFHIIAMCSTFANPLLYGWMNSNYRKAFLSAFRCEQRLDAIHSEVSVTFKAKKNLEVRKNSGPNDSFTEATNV

B1: Compound 180 (peptide)
peptide: Isovaleryl-APEK([Ahx-γGlu-C18 diacid])PEEDATPEELQRYYVSLRHYYNWLTKQRY-NH2
SMILES: CC(C)CC(=O)N[C@@H](C)C(=O)N1CCC[C@H]1C(=O)N[C@@H](CCC(=O)O)C(=O)N[C@@H](CCCCNC(=O)CCCCCNC(=O)CC[C@H](NC(=O)CCCCCCCCCCCCCCCCC(=O)O)C(=O)O)C(=O)N1CCC[C@H]1C(=O)N[C@@H](CCC(=O)O)C(=O)N[C@@H](CCC(=O)O)C(=O)N[C@@H](CC(=O)O)C(=O)N[C@@H](C)C(=O)N[C@H](C(=O)N1CCC[C@H]1C(=O)N[C@@H](CCC(=O)O)C(=O)N[C@@H](CCC(=O)O)C(=O)N[C@@H](CC(C)C)C(=O)N[C@@H](CCC(N)=O)C(=O)N[C@@H](CCCNC(=N)N)C(=O)N[C@@H](Cc1ccc(O)cc1)C(=O)N[C@@H](Cc1ccc(O)cc1)C(=O)N[C@H](C(=O)N[C@@H](CO)C(=O)N[C@@H](CC(C)C)C(=O)N[C@@H](CCCNC(=N)N)C(=O)N[C@@H](Cc1c[nH]cn1)C(=O)N[C@@H](Cc1ccc(O)cc1)C(=O)N[C@@H](Cc1ccc(O)cc1)C(=O)N[C@@H](CC(N)=O)C(=O)N[C@@H](Cc1c[nH]c2ccccc12)C(=O)N[C@@H](CC(C)C)C(=O)N[C@H](C(=O)N[C@@H](CCCCN)C(=O)N[C@@H](CCC(N)=O)C(=O)N[C@@H](CCCNC(=N)N)C(=O)N[C@@H](Cc1ccc(O)cc1)C(N)=O)[C@@H](C)O)C(C)C)[C@@H](C)O
B2: Compound 190 (peptide)
peptide: Isovaleryl-APAK([Ahx-γGlu-C18 diacid])PEEDATPEELQRYYISLRHYYNWLTRQRY-NH2
SMILES: CC[C@H](C)[C@H](NC(=O)[C@H](Cc1ccc(O)cc1)NC(=O)[C@H](Cc1ccc(O)cc1)NC(=O)[C@H](CCCNC(=N)N)NC(=O)[C@H](CCC(N)=O)NC(=O)[C@H](CC(C)C)NC(=O)[C@H](CCC(=O)O)NC(=O)[C@H](CCC(=O)O)NC(=O)[C@@H]1CCCN1C(=O)[C@@H](NC(=O)[C@H](C)NC(=O)[C@H](CC(=O)O)NC(=O)[C@H](CCC(=O)O)NC(=O)[C@H](CCC(=O)O)NC(=O)[C@@H]1CCCN1C(=O)[C@H](CCCCNC(=O)CCCCCNC(=O)CC[C@H](NC(=O)CCCCCCCCCCCCCCCCC(=O)O)C(=O)O)NC(=O)[C@H](C)NC(=O)[C@@H]1CCCN1C(=O)[C@H](C)NC(=O)CC(C)C)[C@@H](C)O)C(=O)N[C@@H](CO)C(=O)N[C@@H](CC(C)C)C(=O)N[C@@H](CCCNC(=N)N)C(=O)N[C@@H](Cc1c[nH]cn1)C(=O)N[C@@H](Cc1ccc(O)cc1)C(=O)N[C@@H](Cc1ccc(O)cc1)C(=O)N[C@@H](CC(N)=O)C(=O)N[C@@H](Cc1c[nH]c2ccccc12)C(=O)N[C@@H](CC(C)C)C(=O)N[C@H](C(=O)N[C@@H](CCCNC(=N)N)C(=O)N[C@@H](CCC(N)=O)C(=O)N[C@@H](CCCNC(=N)N)C(=O)N[C@@H](Cc1ccc(O)cc1)C(N)=O)[C@@H](C)O
B3: Compound 181 (peptide)
peptide: Isovaleryl-APAK([Ahx-γGlu-C18 diacid])PEADAEPEEIQRYYVALRHYYNWLTRQRY-NH2
SMILES: CC[C@H](C)[C@H](NC(=O)[C@H](CCC(=O)O)NC(=O)[C@H](CCC(=O)O)NC(=O)[C@@H]1CCCN1C(=O)[C@H](CCC(=O)O)NC(=O)[C@H](C)NC(=O)[C@H](CC(=O)O)NC(=O)[C@H](C)NC(=O)[C@H](CCC(=O)O)NC(=O)[C@@H]1CCCN1C(=O)[C@H](CCCCNC(=O)CCCCCNC(=O)CC[C@H](NC(=O)CCCCCCCCCCCCCCCCC(=O)O)C(=O)O)NC(=O)[C@H](C)NC(=O)[C@@H]1CCCN1C(=O)[C@H](C)NC(=O)CC(C)C)C(=O)N[C@@H](CCC(N)=O)C(=O)N[C@@H](CCCNC(=N)N)C(=O)N[C@@H](Cc1ccc(O)cc1)C(=O)N[C@@H](Cc1ccc(O)cc1)C(=O)N[C@H](C(=O)N[C@@H](C)C(=O)N[C@@H](CC(C)C)C(=O)N[C@@H](CCCNC(=N)N)C(=O)N[C@@H](Cc1c[nH]cn1)C(=O)N[C@@H](Cc1ccc(O)cc1)C(=O)N[C@@H](Cc1ccc(O)cc1)C(=O)N[C@@H](CC(N)=O)C(=O)N[C@@H](Cc1c[nH]c2ccccc12)C(=O)N[C@@H](CC(C)C)C(=O)N[C@H](C(=O)N[C@@H](CCCNC(=N)N)C(=O)N[C@@H](CCC(N)=O)C(=O)N[C@@H](CCCNC(=N)N)C(=O)N[C@@H](Cc1ccc(O)cc1)C(N)=O)[C@@H](C)O)C(C)C
B4: Compound 185 (peptide)
peptide: Isovaleryl-APAK([Ahx-γGlu-C18 diacid])PEEDASEEELQRYYVSLRHYYNWLTRQRY-NH2
SMILES: CC(C)CC(=O)N[C@@H](C)C(=O)N1CCC[C@H]1C(=O)N[C@@H](C)C(=O)N[C@@H](CCCCNC(=O)CCCCCNC(=O)CC[C@H](NC(=O)CCCCCCCCCCCCCCCCC(=O)O)C(=O)O)C(=O)N1CCC[C@H]1C(=O)N[C@@H](CCC(=O)O)C(=O)N[C@@H](CCC(=O)O)C(=O)N[C@@H](CC(=O)O)C(=O)N[C@@H](C)C(=O)N[C@@H](CO)C(=O)N[C@@H](CCC(=O)O)C(=O)N[C@@H](CCC(=O)O)C(=O)N[C@@H](CCC(=O)O)C(=O)N[C@@H](CC(C)C)C(=O)N[C@@H](CCC(N)=O)C(=O)N[C@@H](CCCNC(=N)N)C(=O)N[C@@H](Cc1ccc(O)cc1)C(=O)N[C@@H](Cc1ccc(O)cc1)C(=O)N[C@H](C(=O)N[C@@H](CO)C(=O)N[C@@H](CC(C)C)C(=O)N[C@@H](CCCNC(=N)N)C(=O)N[C@@H](Cc1c[nH]cn1)C(=O)N[C@@H](Cc1ccc(O)cc1)C(=O)N[C@@H](Cc1ccc(O)cc1)C(=O)N[C@@H](CC(N)=O)C(=O)N[C@@H](Cc1c[nH]c2ccccc12)C(=O)N[C@@H](CC(C)C)C(=O)N[C@H](C(=O)N[C@@H](CCCNC(=N)N)C(=O)N[C@@H](CCC(N)=O)C(=O)N[C@@H](CCCNC(=N)N)C(=O)N[C@@H](Cc1ccc(O)cc1)C(N)=O)[C@@H](C)O)C(C)C
B5: Compound 188 (peptide)
peptide: Isovaleryl-APEK([Ahx-γGlu-C18 diacid])PEEDATPEELQRYYVSLRHYYNWLQRQRY-NH2
SMILES: CC(C)CC(=O)N[C@@H](C)C(=O)N1CCC[C@H]1C(=O)N[C@@H](CCC(=O)O)C(=O)N[C@@H](CCCCNC(=O)CCCCCNC(=O)CC[C@H](NC(=O)CCCCCCCCCCCCCCCCC(=O)O)C(=O)O)C(=O)N1CCC[C@H]1C(=O)N[C@@H](CCC(=O)O)C(=O)N[C@@H](CCC(=O)O)C(=O)N[C@@H](CC(=O)O)C(=O)N[C@@H](C)C(=O)N[C@H](C(=O)N1CCC[C@H]1C(=O)N[C@@H](CCC(=O)O)C(=O)N[C@@H](CCC(=O)O)C(=O)N[C@@H](CC(C)C)C(=O)N[C@@H](CCC(N)=O)C(=O)N[C@@H](CCCNC(=N)N)C(=O)N[C@@H](Cc1ccc(O)cc1)C(=O)N[C@@H](Cc1ccc(O)cc1)C(=O)N[C@H](C(=O)N[C@@H](CO)C(=O)N[C@@H](CC(C)C)C(=O)N[C@@H](CCCNC(=N)N)C(=O)N[C@@H](Cc1c[nH]cn1)C(=O)N[C@@H](Cc1ccc(O)cc1)C(=O)N[C@@H](Cc1ccc(O)cc1)C(=O)N[C@@H](CC(N)=O)C(=O)N[C@@H](Cc1c[nH]c2ccccc12)C(=O)N[C@@H](CC(C)C)C(=O)N[C@@H](CCC(N)=O)C(=O)N[C@@H](CCCNC(=N)N)C(=O)N[C@@H](CCC(N)=O)C(=O)N[C@@H](CCCNC(=N)N)C(=O)N[C@@H](Cc1ccc(O)cc1)C(N)=O)C(C)C)[C@@H](C)O
B6: Compound 187 (peptide)
peptide: Isovaleryl-APEK([Ahx-γGlu-C18 diacid])PEEDATPEEPQRYYVSLRHYYNWLTRQRY-NH2
SMILES: CC(C)CC(=O)N[C@@H](C)C(=O)N1CCC[C@H]1C(=O)N[C@@H](CCC(=O)O)C(=O)N[C@@H](CCCCNC(=O)CCCCCNC(=O)CC[C@H](NC(=O)CCCCCCCCCCCCCCCCC(=O)O)C(=O)O)C(=O)N1CCC[C@H]1C(=O)N[C@@H](CCC(=O)O)C(=O)N[C@@H](CCC(=O)O)C(=O)N[C@@H](CC(=O)O)C(=O)N[C@@H](C)C(=O)N[C@H](C(=O)N1CCC[C@H]1C(=O)N[C@@H](CCC(=O)O)C(=O)N[C@@H](CCC(=O)O)C(=O)N1CCC[C@H]1C(=O)N[C@@H](CCC(N)=O)C(=O)N[C@@H](CCCNC(=N)N)C(=O)N[C@@H](Cc1ccc(O)cc1)C(=O)N[C@@H](Cc1ccc(O)cc1)C(=O)N[C@H](C(=O)N[C@@H](CO)C(=O)N[C@@H](CC(C)C)C(=O)N[C@@H](CCCNC(=N)N)C(=O)N[C@@H](Cc1c[nH]cn1)C(=O)N[C@@H](Cc1ccc(O)cc1)C(=O)N[C@@H](Cc1ccc(O)cc1)C(=O)N[C@@H](CC(N)=O)C(=O)N[C@@H](Cc1c[nH]c2ccccc12)C(=O)N[C@@H](CC(C)C)C(=O)N[C@H](C(=O)N[C@@H](CCCNC(=N)N)C(=O)N[C@@H](CCC(N)=O)C(=O)N[C@@H](CCCNC(=N)N)C(=O)N[C@@H](Cc1ccc(O)cc1)C(N)=O)[C@@H](C)O)C(C)C)[C@@H](C)O

molecular target: T1, human NPY2 receptor; test: RLB: displacement of 125I-PYY(1-36) from hNPY2R membranes

Binder	Ki [nM]
B1	15.1
B2	1.95
B3	1.33
B4	2.06
B5	5.46
B6	15.3
